Tests used:
Sm (sphingomyelin) [1] = test: AtheNA Multi-Lyte ANA, Ab at 25 ug/ml
centromere B (CentB) [2] = target: centromere B (CentB) (UniProt P07199); test: AtheNA Multi-Lyte ANA, Ab at 25 ug/ml
[3] = target: histidine-tRNA ligase (Jo-1) (UniProt P12081); test: AtheNA Multi-Lyte ANA, Ab at 25 ug/ml
histones [4] = test: AtheNA Multi-Lyte ANA, Ab at 25 ug/ml
ribonucleoprotein (RNP) [5] = test: AtheNA Multi-Lyte ANA, Ab at 25 ug/ml
[6] = target: sclerosis autoantigen (Scl-70) (UniProt P11387); test: AtheNA Multi-Lyte ANA, Ab at 25 ug/ml
Chain of sclerosis autoantigen (Scl-70) (P11387 2-765 limits assumed): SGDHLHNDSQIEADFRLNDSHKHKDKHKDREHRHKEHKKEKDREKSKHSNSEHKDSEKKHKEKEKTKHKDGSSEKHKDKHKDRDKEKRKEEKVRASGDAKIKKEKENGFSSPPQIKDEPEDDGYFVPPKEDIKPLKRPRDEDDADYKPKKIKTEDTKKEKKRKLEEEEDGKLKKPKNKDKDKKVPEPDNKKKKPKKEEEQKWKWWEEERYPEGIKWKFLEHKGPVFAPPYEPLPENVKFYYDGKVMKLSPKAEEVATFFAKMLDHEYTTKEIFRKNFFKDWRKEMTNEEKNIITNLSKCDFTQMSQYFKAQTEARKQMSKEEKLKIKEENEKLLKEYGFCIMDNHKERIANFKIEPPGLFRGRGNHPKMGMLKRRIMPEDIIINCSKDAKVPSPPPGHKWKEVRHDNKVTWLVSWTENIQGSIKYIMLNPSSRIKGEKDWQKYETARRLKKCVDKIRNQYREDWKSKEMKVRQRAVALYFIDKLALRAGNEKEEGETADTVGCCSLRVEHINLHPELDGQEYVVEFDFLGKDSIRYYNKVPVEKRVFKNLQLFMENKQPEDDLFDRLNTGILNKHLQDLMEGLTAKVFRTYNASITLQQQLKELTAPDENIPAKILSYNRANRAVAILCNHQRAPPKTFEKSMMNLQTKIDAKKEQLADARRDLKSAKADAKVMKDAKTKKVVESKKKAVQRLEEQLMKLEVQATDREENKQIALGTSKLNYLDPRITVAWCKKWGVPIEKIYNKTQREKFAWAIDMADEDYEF

[7] = target: systemic lupus erythematosus autoantigen SSA; test: AtheNA Multi-Lyte ANA, Ab at 25 ug/ml
[8] = target: systemic lupus erythematosus autoantigen SSB (UniProt P05455); test: AtheNA Multi-Lyte ANA, Ab at 25 ug/ml
Chain of systemic lupus erythematosus autoantigen SSB (P05455 whole entry): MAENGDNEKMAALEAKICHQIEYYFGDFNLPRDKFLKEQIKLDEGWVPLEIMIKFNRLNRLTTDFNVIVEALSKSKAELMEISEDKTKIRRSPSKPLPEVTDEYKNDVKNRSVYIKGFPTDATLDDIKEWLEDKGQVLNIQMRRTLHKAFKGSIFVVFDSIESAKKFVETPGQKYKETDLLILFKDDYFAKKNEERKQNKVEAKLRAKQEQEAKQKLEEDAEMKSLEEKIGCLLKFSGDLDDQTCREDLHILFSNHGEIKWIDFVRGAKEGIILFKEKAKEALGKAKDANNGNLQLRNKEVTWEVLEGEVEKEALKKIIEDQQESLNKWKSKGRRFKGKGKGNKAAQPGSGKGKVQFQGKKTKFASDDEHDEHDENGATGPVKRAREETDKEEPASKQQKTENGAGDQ

Sm (sphingomyelin) [9] = test: AtheNA Multi-Lyte ANA, Ab at 50 ug/ml
centromere B (CentB) [10] = target: centromere B (CentB) (UniProt P07199); test: AtheNA Multi-Lyte ANA, Ab at 50 ug/ml
[11] = target: histidine-tRNA ligase (Jo-1) (UniProt P12081); test: AtheNA Multi-Lyte ANA, Ab at 50 ug/ml
histones [12] = test: AtheNA Multi-Lyte ANA, Ab at 50 ug/ml
ribonucleoprotein (RNP) [13] = test: AtheNA Multi-Lyte ANA, Ab at 50 ug/ml
[14] = target: sclerosis autoantigen (Scl-70) (UniProt P11387); test: AtheNA Multi-Lyte ANA, Ab at 50 ug/ml
[15] = target: systemic lupus erythematosus autoantigen SSA; test: AtheNA Multi-Lyte ANA, Ab at 50 ug/ml
[16] = target: systemic lupus erythematosus autoantigen SSB (UniProt P05455); test: AtheNA Multi-Lyte ANA, Ab at 50 ug/ml

Chain of centromere B (CentB) (P07199 2-599): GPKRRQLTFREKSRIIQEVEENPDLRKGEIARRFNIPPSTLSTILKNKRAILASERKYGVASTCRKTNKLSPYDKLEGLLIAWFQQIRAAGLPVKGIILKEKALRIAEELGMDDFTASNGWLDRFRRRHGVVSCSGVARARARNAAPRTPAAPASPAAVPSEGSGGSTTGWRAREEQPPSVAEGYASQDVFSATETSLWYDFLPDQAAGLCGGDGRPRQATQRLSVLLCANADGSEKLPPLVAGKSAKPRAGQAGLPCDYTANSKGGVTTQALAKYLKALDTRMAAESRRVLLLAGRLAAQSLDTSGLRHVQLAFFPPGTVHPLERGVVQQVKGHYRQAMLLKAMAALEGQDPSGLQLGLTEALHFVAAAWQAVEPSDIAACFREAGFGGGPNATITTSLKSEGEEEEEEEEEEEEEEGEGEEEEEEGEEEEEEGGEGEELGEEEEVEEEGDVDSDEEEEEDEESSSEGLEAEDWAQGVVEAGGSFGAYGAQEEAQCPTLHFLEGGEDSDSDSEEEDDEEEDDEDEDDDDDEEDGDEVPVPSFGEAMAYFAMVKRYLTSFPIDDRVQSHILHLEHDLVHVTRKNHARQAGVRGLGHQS
Chain of histidine-tRNA ligase (Jo-1) (P12081 2-509): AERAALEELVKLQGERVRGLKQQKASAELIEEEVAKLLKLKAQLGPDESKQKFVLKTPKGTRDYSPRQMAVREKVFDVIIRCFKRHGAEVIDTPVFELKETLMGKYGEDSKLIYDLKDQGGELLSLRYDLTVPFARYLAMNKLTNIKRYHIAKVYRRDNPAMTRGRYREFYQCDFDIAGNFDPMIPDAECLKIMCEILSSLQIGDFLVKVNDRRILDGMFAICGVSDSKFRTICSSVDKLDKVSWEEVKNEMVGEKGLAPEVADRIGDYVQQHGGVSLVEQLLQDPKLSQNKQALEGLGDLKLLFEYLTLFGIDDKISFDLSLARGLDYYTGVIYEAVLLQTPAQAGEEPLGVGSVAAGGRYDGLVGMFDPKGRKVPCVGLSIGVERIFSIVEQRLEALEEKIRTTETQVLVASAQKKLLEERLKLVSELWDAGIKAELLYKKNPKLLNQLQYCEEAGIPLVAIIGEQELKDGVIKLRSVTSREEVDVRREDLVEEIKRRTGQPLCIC

AtheNA signal (Sm (sphingomyelin) [1]) | AtheNA signal (centromere B (CentB) [2]) | AtheNA signal [3] | AtheNA signal (histones [4]) | AtheNA signal (ribonucleoprotein (RNP) [5]) | AtheNA signal [6] | AtheNA signal [7] | AtheNA signal [8] | AtheNA signal (Sm (sphingomyelin) [9]) | AtheNA signal (centromere B (CentB) [10]) | AtheNA signal [11] | AtheNA signal (histones [12]) | AtheNA signal (ribonucleoprotein (RNP) [13]) | AtheNA signal [14] | AtheNA signal [15] | AtheNA signal [16] | Substance
2 | 1 | 1 | 1 | 3 | 2 | 2 | 6 | 4 | 1 | 1 | 2 | 1 | 1 | 0 | 5 | SYNAGIS (anti-RSV monoclonal antibody palivizumab)
7 | 7 | 124 | 15 | 13 | 3 | 75 | 157 | 11 | 12 | 149 | 20 | 18 | 3 | 92 | 184 | 4e10 (Anti HIV, NIH AIDS Reagent Program) (antibody)

— US20190315842A1
